What was measured:
[1] = biological target: wild-type human IL-21R (human) (UniProt Q9HBE5); test: AlphaSeq yeast mating assay, pH 5 media
[2] = biological target: wild-type human IL-21R (human) (UniProt Q9HBE5); test: AlphaSeq yeast mating assay, pH 6 media
[3] = biological target: wild-type human IL-21R (human) (UniProt Q9HBE5); test: AlphaSeq yeast mating assay, unbuffered media
[4] = biological target: wild-type human IL-21R (human) (UniProt Q9HBE5); test: AlphaSeq yeast mating assay, pH 7 media
[5] = biological target: human interleukin 21 receptor (IL-21R) (human) (UniProt Q9HBE5); test: AlphaSeq yeast mating, pH 6 media
[6] = biological target: human interleukin 21 receptor (IL-21R) (human) (UniProt Q9HBE5); test: AlphaSeq yeast mating, unbuffered media
[7] = biological target: human interleukin 21 receptor (IL-21R) (human) (UniProt Q9HBE5); test: AlphaSeq yeast mating, pH 7 media
[8] = biological target: recombinant human IL-21R His tag (Acro Biosystems) (human) (UniProt Q9HBE5); test: BLI
[9] = biological target: mouse IL-21R, His-tagged (BLI antigen) (mouse) (UniProt Q9JHX3); test: BLI
[10] = biological target: human interleukin 21 receptor (IL-21R) (human) (UniProt Q9HBE5); test: AlphaSeq yeast mating, pH 5 media
[11] = biological target: human interleukin 21 receptor (IL-21R) (human) (UniProt Q9HBE5); test: AlphaSeq yeast mating assay, pH 5 media

| Kd [4] | Kd [5] | Kd [6] | Kd [7] | Kd [10] | Substance | also measured |
| --- | --- | --- | --- | --- | --- | --- |
| 25 nM | – | – | – | – | IL-21_Q41S (from UniProt Q9HBE4 32-152) (ligand) | Kd [1]: 140 nM; Kd [2]: 26 nM; Kd [3]: 3000 nM |
| 21 nM | – | – | – | – | IL-21_E72H (from UniProt Q9HBE4 32-152) (ligand) | Kd [2]: 11 nM; Kd [3]: 3400 nM |
| 62 nM | – | – | – | – | IL-21_I96V (from UniProt Q9HBE4 32-152) (ligand) | Kd [1]: 190 nM; Kd [3]: 3000 nM |
| – | 88 nM | 15000 nM | 120 nM | – | IL-21_W73Q (from UniProt Q9HBE4 32-152) (ligand) | – |
| 46 nM | – | – | – | – | IL-21_P62T (from UniProt Q9HBE4 32-152) (ligand) | Kd [3]: 4500 nM |
| – | – | – | – | – | IL-21_human_I37V Fc fusion protein (from UniProt Q9HBE4 30-162) | Kd [8]: 3.02 nM; Kd [9]: 5.27 nM |
| – | 96 nM | 20000 nM | 190 nM | – | IL-21_R34W (from UniProt Q9HBE4 32-152) (ligand) | – |
| 210 nM | – | – | – | – | IL-21_R34E (from UniProt Q9HBE4 32-152) (ligand) | – |
| – | 550 nM | 34000 nM | 190 nM | 9800 nM | IL-21_I95T (from UniProt Q9HBE4 32-152) (ligand) | – |
| – | 16 nM | 14000 nM | 50 nM | 50 nM | IL-21_V57R (from UniProt Q9HBE4 32-152) (ligand) | – |
| – | – | 14000 nM | 170 nM | 190 nM | IL-21_S77K (from UniProt Q9HBE4 32-152) (ligand) | – |
| – | – | – | – | – | IL-21_human_I45A Fc fusion protein (from UniProt Q9HBE4 30-162) | Kd [8]: 1.94 nM; Kd [9]: 12.6 nM |
| – | 25 nM | – | 46 nM | 47 nM | IL-21_L120K (from UniProt Q9HBE4 32-152) (ligand) | – |
| – | 950 nM | 11000 nM | 260 nM | 20000 nM | IL-21_H118R (from UniProt Q9HBE4 32-152) (ligand) | – |
| – | 27 nM | 14000 nM | 45 nM | 120 nM | IL-21_D33N (from UniProt Q9HBE4 32-152) (ligand) | – |
| – | 26 nM | 40000 nM | – | 43 nM | IL-21_S109K (from UniProt Q9HBE4 32-152) (ligand) | – |
| 120 nM | – | – | – | – | IL-21_A87N (from UniProt Q9HBE4 32-152) (ligand) | Kd [1]: 110 nM; Kd [2]: 25 nM |
| – | – | – | – | – | IL-21_human_D33T Fc fusion protein (from UniProt Q9HBE4 30-162) | Kd [8]: 14.8 nM; Kd [9]: 37.4 nM |
| 27 nM | – | – | – | – | IL-21_F60R (from UniProt Q9HBE4 32-152) (ligand) | Kd [1]: 76 nM; Kd [2]: 26 nM |
| 210 nM | – | – | – | – | IL-21_A63T (from UniProt Q9HBE4 32-152) (ligand) | Kd [2]: 21 nM; Kd [3]: 3300 nM |
| – | – | – | – | – | IL-21_human_R38Q Fc fusion protein (from UniProt Q9HBE4 30-162) | Kd [8]: 89.6 nM; Kd [9]: 246 nM |
| – | 54 nM | 32000 nM | – | 1000 nM | IL-21_Q145H (from UniProt Q9HBE4 32-152) (ligand) | – |

| Kd [4] | Kd [5] | Kd [6] | Kd [7] | Kd [10] | Substance | also measured |
| --- | --- | --- | --- | --- | --- | --- |
| – | – | – | – | – | IL-21_human_K106S Fc fusion protein (from UniProt Q9HBE4 30-162) | Kd [8]: 5.78 nM; Kd [9]: 24 nM |
| – | 24 nM | 8500 nM | 47 nM | 160 nM | IL-21_N51P (from UniProt Q9HBE4 32-152) (ligand) | – |
| – | 360 nM | 26000 nM | 170 nM | 3500 nM | IL-21_W73A (from UniProt Q9HBE4 32-152) (ligand) | – |
| – | – | – | 83 nM | – | IL-21_D33A (from UniProt Q9HBE4 32-152) (ligand) | – |
| – | – | – | – | – | IL-21_human_I45H Fc fusion protein (from UniProt Q9HBE4 30-162) | Kd [8]: 29 nM; Kd [9]: 124 nM |
| 27 nM | – | – | – | – | IL-21_N54P (from UniProt Q9HBE4 32-152) (ligand) | Kd [1]: 89 nM; Kd [2]: 20 nM; Kd [3]: 5400 nM |
| – | 140 nM | – | 340 nM | 530 nM | IL-21_E72S (from UniProt Q9HBE4 32-152) (ligand) | – |
| – | 200 nM | 33000 nM | – | 5200 nM | IL-21_W73L (from UniProt Q9HBE4 32-152) (ligand) | – |
| 48 nM | – | – | – | – | IL-21_N97G (from UniProt Q9HBE4 32-152) (ligand) | Kd [1]: 77 nM; Kd [2]: 24 nM; Kd [3]: 7600 nM |
| 39 nM | – | – | – | – | IL-21_Q48G (from UniProt Q9HBE4 32-152) (ligand) | Kd [1]: 59 nM; Kd [2]: 16 nM; Kd [3]: 3200 nM |
| – | 35 nM | – | 140 nM | 250 nM | IL-21_I37Q (from UniProt Q9HBE4 32-152) (ligand) | – |
| – | – | 60000 nM | 25 nM | – | IL-21_S99H (from UniProt Q9HBE4 32-152) (ligand) | – |
| 110 nM | – | – | – | – | IL-21_P62H (from UniProt Q9HBE4 32-152) (ligand) | Kd [1]: 160 nM; Kd [2]: 21 nM; Kd [3]: 5100 nM |
| – | – | – | – | – | IL-21_human_I43M Fc fusion protein (from UniProt Q9HBE4 30-162) | Kd [8]: 7.02 nM; Kd [9]: 9.04 nM |
| – | 92 nM | 60000 nM | – | 1200 nM | IL-21_D44N (from UniProt Q9HBE4 32-152) (ligand) | – |
| 150 nM | – | – | – | – | IL-21_E93G (from UniProt Q9HBE4 32-152) (ligand) | Kd [2]: 37 nM; Kd [3]: 7200 nM |
| – | 47 nM | 14000 nM | – | 390 nM | IL-21_R34K (from UniProt Q9HBE4 32-152) (ligand) | – |
| – | – | – | – | – | IL-21_K131V (from UniProt Q9HBE4 32-152) (ligand) | Kd [11]: 26 nM |
| – | 390 nM | 63000 nM | 89 nM | 55000 nM | IL-21_Y52Q (from UniProt Q9HBE4 32-152) (ligand) | – |
| – | 37 nM | – | 83 nM | 370 nM | IL-21_L61I (from UniProt Q9HBE4 32-152) (ligand) | – |
| – | – | – | – | – | IL-21_human_R38M Fc fusion protein (from UniProt Q9HBE4 30-162) | Kd [8]: 87.9 nM; Kd [9]: 189 nM |
| 370 nM | – | – | – | – | IL-21_H118K (from UniProt Q9HBE4 32-152) (ligand) | Kd [1]: 99000 nM; Kd [2]: 3100 nM |

| Kd [4] | Kd [5] | Kd [6] | Kd [7] | Kd [10] | Substance | also measured |
| --- | --- | --- | --- | --- | --- | --- |
| – | 43 nM | 21000 nM | 140 nM | 170 nM | IL-21_N88K (from UniProt Q9HBE4 32-152) (ligand) | – |
| – | – | – | – | – | IL-21_human_I95H Fc fusion protein (from UniProt Q9HBE4 30-162) | Kd [8]: 16 nM; Kd [9]: 849 nM |
| 99 nM | – | – | – | – | IL-21_P108L (from UniProt Q9HBE4 32-152) (ligand) | Kd [1]: 360 nM; Kd [2]: 35 nM; Kd [3]: 8100 nM |
| 160 nM | – | – | – | – | IL-21_S74A (from UniProt Q9HBE4 32-152) (ligand) | Kd [1]: 140 nM; Kd [3]: 4400 nM |
| – | 50 nM | 14000 nM | 94 nM | – | IL-21_Q150R (from UniProt Q9HBE4 32-152) (ligand) | – |
| – | – | – | – | – | IL-21_human_E72L Fc fusion protein (from UniProt Q9HBE4 30-162) | Kd [9]: 12.3 nM |
| – | – | – | – | – | IL-21_human_I148S Fc fusion protein (from UniProt Q9HBE4 30-162) | Kd [8]: 2.45 nM; Kd [9]: 6.46 nM |
| – | – | – | 27 nM | 82 nM | IL-21_D33S (from UniProt Q9HBE4 32-152) (ligand) | – |
| – | – | – | – | – | IL-21_K85S (from UniProt Q9HBE4 32-152) (ligand) | Kd [11]: 150 nM |
| 75 nM | – | – | – | – | IL-21_F76M (from UniProt Q9HBE4 32-152) (ligand) | Kd [1]: 77 nM; Kd [2]: 21 nM |
| – | – | – | – | – | IL-21_human_I37R Fc fusion protein (from UniProt Q9HBE4 30-162) | Kd [9]: 35.1 nM |
| – | – | – | – | – | IL-21_human_R105K Fc fusion protein (from UniProt Q9HBE4 30-162) | Kd [8]: 16.7 nM; Kd [9]: 41.3 nM |
| – | – | – | – | – | IL-21_human_I37G Fc fusion protein (from UniProt Q9HBE4 30-162) | Kd [9]: 159 nM |
| – | 110 nM | 16000 nM | 140 nM | 1000 nM | IL-21_T89L (from UniProt Q9HBE4 32-152) (ligand) | – |
| 84 nM | – | – | – | – | IL-21_L56M (from UniProt Q9HBE4 32-152) (ligand) | Kd [1]: 350 nM; Kd [2]: 45 nM; Kd [3]: 6700 nM |
| 110 nM | – | – | – | – | IL-21_P133I (from UniProt Q9HBE4 32-152) (ligand) | Kd [2]: 44 nM |
| 27 nM | – | – | – | – | IL-21_N54H (from UniProt Q9HBE4 32-152) (ligand) | Kd [1]: 77 nM; Kd [2]: 20 nM |
| – | – | 10000 nM | 200 nM | – | IL-21_R34H (from UniProt Q9HBE4 32-152) (ligand) | – |
| 52 nM | – | – | – | – | IL-21_S86I (from UniProt Q9HBE4 32-152) (ligand) | Kd [1]: 110 nM |
| – | – | 32000 nM | 410 nM | 48000 nM | IL-21_S74N (from UniProt Q9HBE4 32-152) (ligand) | – |
| 190 nM | – | – | – | – | IL-21_F60I (from UniProt Q9HBE4 32-152) (ligand) | Kd [1]: 340 nM; Kd [3]: 7700 nM |

Reference: patent publication US12281147
